The text below walks through data of the domain aggregation screens of Martell et al. (2025).

Bounds are passed on as bounds.

A short description of this series: soluble fraction after stress (log2 fold change); higher = more stays soluble; pooled small domains, quantitative proteomics. The conditions noted are these: stress: pH 4. The method, boiled down: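 Values are on a log2 scale, where higher means more of the domain stayed soluble after pH 4 stress. They are fold changes in the soluble amount of each domain from pooled custom libraries, measured by high-throughput quantitative proteomics. The fold change is taken to reflect aggregation propensity.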
Consider “HMSSWEEQLKIWAKNELASGNTDILARATVSFEQILIEAALTHTGGRKKTAAELLGWGRNTLTRKIKELHI”, for which the “soluble fraction (log2)” value is -0.743. “HMSSWEVLAEPIQTVMRRYGVPGAYEKLKEVTRGKSLTAEALHALIRSLDIPQADKERLLALTPAAWA”: the “soluble fraction (log2)” value is -0.393. Take “HMSSYAEVMERSKYLQLHKYKIWKSETDGFWRTYYLNEQGKRKMKKLKHSEDMIDFVIEYVQNNE”: the “soluble fraction (log2)” value is -1.06. For the sequence “HMSTDDILSSITALRLASVQFQLGQFDPALDSLKLVKEQAWSGAKNILAGDIQLAKGDKEAAKASYQQAQQ”, the “soluble fraction (log2)” value is -0.542.

With “HMSTDIPFNIFSQKWNADEIDSIVVENNKIEGKTKDNKKFSTYAPDELLTSLMENHKNPNVIVEFRAP”, the “soluble fraction (log2)” value is -0.646.

On to “HMSTDKIDIVSSAILSSLKDNDGFIGLTDKSPPPEIYTAFRVSKKVFKQAIGALYKQRRITLESSGIRLIS”, for which the “soluble fraction (log2)” value is -0.107. As to “HMSTDSTQLLGFNKTGEELPIYKEANEENKFAEIPQNVYVKNFGQNGEFTKIKYLDQEGYVKTAGLK”, the “soluble fraction (log2)” value came to 0.199. Consider “HMSTEEYDRGYEQGLEEAAKADDAWVANLIKIYSQNTPESMPETMKGRLDAFLYEQQRRAQSVPEM”, for which the “soluble fraction (log2)” value was -1.09. For “HMSTIAAMADPRAWALEMLGFPPGTVKPSKREIQVRFRESLRDVHPDHGGDSRTASASINDLSEARRVLLS”, the “soluble fraction (log2)” value worked out at 0.0192.

Turning to “HMSTLGIRIKHYRTDSNLTQKELAGLINVKRDALANWETDRALPDVMNLKKLAEVFQVSTDELLQV”, the “soluble fraction (log2)” value was -0.225. With “HMSTLTGTQRAAVVLMQMSPPNAARVMAQFTDAEAEEIAAEIVRLRKVDPEVAEQIMKDFHEAALSS”, the “soluble fraction (log2)” value was -0.645. With “HMSTLTLTSGTYAVGENIKAGKYTIMGSGSIAISSSGKARVNSNLTADRKDYVLNDDETIKIKGKAQFIPI”, the “soluble fraction (log2)” value was found to be 0.0425. Next, “HMSTMKIVRVKSNLKIGQEITSKDIEVVEVGAYNMPSEVMKNSEDVIGKYASAEMIKGEYVLAAKISDTP”: -0.902; “HMSTMNRLPRHEQILKLVRANGFMPIEELARLLDVTPQTIRRDINTLSEENLLRRFHGGAALGPSVE”: 0.255. Take “HMSTMTGTVDTPGASLNVRTGAWGPIVGQLAHGSKVTIIGSSGDWFKISYNGATRYVHKNYVNTT”: the “soluble fraction (log2)” value is -0.0624. For “HMSTMVEIPNVVGMTIKEAKEALGNLGLSISKISGSNEDSAIVTEVSPAPGSSVKRDESITLVGQPK”, the “soluble fraction (log2)” value was 0.12. Turning to “HMSTPAKVTPTNPIVKQLFNAAETQIKNKDIQNAIASYEKADTLTTDEKVKQYIHYQLSTLKDDN”, the “soluble fraction (log2)” value was 0.0384. As to “HMSTPERQEVLDILKRQGEMTPLQIAGQISRTSKSVSNILSKLKREGFVANGAKYGSWVSTES”, the “soluble fraction (log2)” value was 0.0778.

Consider “HMSTPTVDTKTKLDLYNLLYKKDLNYLDAYNFVLDNFGSDNIDIMFKMLGLDFTNWVIENKPE”, for which the “soluble fraction (log2)” value was determined as 0.0493. For the sequence “HMSTQYKTGHYKTTDALNLRASYSTSSNVLLTIPKGKTIVVTRVHNNEWGQVEYNGKTGWIYLEYTAYTES”, the “soluble fraction (log2)” value is -0.387. On to “HMSTSAAELLRTARQQAGMSQSAVAELAKTSQSAIAMYEAGNREPSLPVLQRLLAATGHQLSLSVLP”, for which the “soluble fraction (log2)” value came to 0.00437. To “HMSTTILSFQNRVVIETLHNEGRSLRYIANYLGFSKATIFNELHRLNSEYRAELAQADFERKVSQR” belongs -0.53; to “HMSTVAETVYNEIRDDILYGELQPGVKLKLEALRERYSVGVNTLREVLNRLVASGFVFVEGQKGFRVV”, -0.377; to “HMSTVEKDSELGGNFRIASYPTGKGQISEAIRSMIVRAKQVGVNIRLNTEATEEPLRALAPNAVILATG”, 0.18. On to “HMSTVELPVQINGKVRGRITVPANAGQEDVKQAALADSKVQRYIEGASIRKVIVVPRKLVNIVV”, for which the “soluble fraction (log2)” value is not below 0.43. To “HMSTVTGLINYLSSGLIKGVGEATARKLVDHFGLDVLDIIQFNPQRLLEVDGIGEARAEMIASSFSEQK” belongs -1.48; to “HMSVDIIPGKADQKVRLIHDPAIVGVTTGGVKTAGPHTLIQIELGPNERPYKRLSLLELIPEG”, 0.00535. To “HMSVDVGMQLRKLREERKISMRELARLSGLSANALSMIERGLTSPSVSTLNKLAGALEVPITAFFRI” belongs -0.00213.

For “HMSVEVPNLIGKTLDQVDIDLKSLDLSFVILDSARYNSSFKPLSVIDHQPISGAKVKVNRKIYLTINPS”, the “soluble fraction (log2)” value was -0.358. Next, “HMSVKIELNENEQAIFTAVQKVNEAVLPELRAQFSDMSNKAWDNSVKMLTKNNLLKVSKEGEILYIRM”: 0.0421; “HMSVKSVSLRKISYKVRRGDSLYNIAKNFSLSINDITHWNSINKKSYLQPGQRLTLYINPRN”: 0.193. To “HMSVKVFRDQILLNNDSDKMLQLSFSNLFGQKVLETSISPGKSAISTGNLPPGIYFITTSPATGVMRVII” belongs -0.544. Turning to “HMSVLRLGNRGPDVRKLQLLLNSTLVPSPQLTVDGDFGKRTEQAVVTFQQMRGLPQDGIVGQRTWALLGQT”, the “soluble fraction (log2)” value is 0.241. For “HMSVLSVASKNQAINPGQVVALLKDGIKLNDDGRVEILDNNNNIRYNEKGNLLSIEERVKEFLDANPHFRQ”, the “soluble fraction (log2)” value is -0.134. As for “HMSVLVLPMLKELTHEDREVVELFYLNDMSVREIALIISVPIGTVKSRLHRARAQLKHQIVNLNQ”, the “soluble fraction (log2)” value was -1.18. In the case of “HMSVPVNAPMPGTILDIKVKAGAAVKAGDVVMILEAMKMENEISAPQDGTIASIDVRKGDTVNSGDVLYTM”, the “soluble fraction (log2)” value was -0.00195. Next, “HMSVSVNAPMPGNILDVRAKTGESIQKGQVIVILEAMKMENEIMAPQDGKISSINTSKGSTVNSGDLLFTM”: -0.693. As to “HMSVTMPNLVGLDEQTAVTRINSSNLSYGSTNYVHSDHEAGVVFKQSTPAYTEVDEHTKIYIWVSLGPEE”, the “soluble fraction (log2)” value was -0.145. In the case of “HMSVTPLLDATEKDKTKYRDLWLVAVVKNGVNYARKYKFGYVYAWLYRHDRDWLLQVNNQHKIPNIT”, the “soluble fraction (log2)” value was -0.107. As to “HMSVTVMVLRAAGDIQAGTEITDKHLATVEVGEYGLPEGIINDKDSILGKIALTDIAKGDYFFSQKLG”, the “soluble fraction (log2)” value was -1.31. For the sequence “HMSVVKPIYIGMMTSEVEAIMGKPFEVITNNNSKNNQLWIYKYQDKRSVMLTFTNYKLIKIE”, the “soluble fraction (log2)” value is -0.0356. Consider “HMSWDNELLERAHKIIELYPQKRSALGPLLYLAQEKDGFISDDSIVEISNLVDITEVQVKSVSSFYSMY”, for which the “soluble fraction (log2)” value was -0.0573. In the case of “HMSWGDVKLTMWGAEEDQTMLREMADAFIEQNADKGNVTIEIGVQSESSAKDTVLADPESAADVFA”, the “soluble fraction (log2)” value is -0.106. With “HMSWRWVPVSGAYTTSALEAAGLTRAFDDQAAAEEWLGLFFDDLLREGVGEVSLYEEDRLVYGPMSL”, the “soluble fraction (log2)” value is -2.33.

“HMSYANVEWRDFLNSLDEKYRIVVILYYVQGFKTREIAEILQINQSTVRGRLAKAREKLEQQYN”: the “soluble fraction (log2)” value was -1.13.

Take “HMSYFIFDGVLNLGKQYELKGEESSHITKSRRLRPGDSFLIQDQEGQRFEAILKSFDRNSLIFTPHKPTA”: the “soluble fraction (log2)” value was 0.043.

For “HMSYFNEYEVGDTIRVVNGPLADQISTITAIDKEKGLVNISTVFFGRENNVQVSINDIEKYN”, the “soluble fraction (log2)” value was -0.903. For the sequence “HMSYGDLTGRTVVITGASKGIGARASRVLAQAGASVVGLARSVDELTALKYDLENDGLSFDFG”, the “soluble fraction (log2)” value was not below 0.43.

Consider “HMSYKYYSTERPLMPGSFPKPQGNTVLNIENFNDRSYVGKIGREAWGFIEYEKPISPVLLDDYELVAA”, for which the “soluble fraction (log2)” value was not below 0.43. Take “HMSYLELENLAEDIKATYDNLSTDLREVFRLSDIEGLSYEEISNKMNIPIGTVRSRLHRARETLLRIFNN”: the “soluble fraction (log2)” value was -1.22. As for “HMSYPTAVTQTTLNVRTGPGTQYERLGAFVENTEVIVLTRQPEWIQVRGMSGDKAIIGWVSARYLQMNP”, the “soluble fraction (log2)” value was found to be 0.18. As to “HMSYQNKLNYLINAFGGADNFQKLLGVGPSAISNYKSRKHLPLNQAKRLSKIAPQFGFSLDPHSLQIST”, the “soluble fraction (log2)” value came out at 0.0613. Next, “HMSYQSYDKVVGDTFFEANLKAESKFGKGNFEIISTRRVKHPIYLGFGHKELVELTIGIHDP”: -0.302; “HMSYTAYLSQELGDMSREIQSELLKKGYNGSSSFTIVRTYMGSSVKFSVYNANNGELITSKTINM”: -0.306.

Consider “HMSYTDIILKMSNVNFLTKVNFTNSEKNKNIKNGNFLIKKGKNRITAAFDYKDNELVISKSNLRNTFL”, for which the “soluble fraction (log2)” value is -1.22. As for “HMTAEVIYVDVGGEVNQPSVVELTDGSRVTDAIAAAGGLTEKADLTDINRAAFVSDGEKIFIPSQEE”, the “soluble fraction (log2)” value was -0.385. As for “HMTAFAGLTPRERDLLELIAQGRDNAQIAATLGVSDKTVRNHITHIFAKLEVETRAQAIVLARNAGFGRA”, the “soluble fraction (log2)” value is -0.0568. With “HMTAGYFTRGSHQDEVLRIQGTPSGVNKYSDHEVWNYGLSSVDISLRDRRVTEWNNISGNLKV”, the “soluble fraction (log2)” value is -0.35. With “HMTAKRELILRVFMDSNGKLLSIDDVFMEMRKKRSHRTSKMTVKRAIDLLVDLGLLKEVLFDDDNIKYEYV”, the “soluble fraction (log2)” value was -0.105. “HMTALISGNKAMQMLELSRHSFEKIVKDGLLSIVHEGDKKYYEIGEVEAFMGSDTYKELVNGV”: the “soluble fraction (log2)” value was -0.314. Next, “HMTALSIGTVVRFTGDRHYISSTGDTGYPASPGLAKITSINPGSKHPYHLIHIDNTSNVYGWVNKQDIIT”: not below 0.43; “HMTAQLSITLNGETRRAAAGSIADLVRSLELDPAKVAVERNGLIVPRSTLAEVALGDGDVLEIVHFV”: -0.4. On to “HMTASTLSYSKFNEQVVQNQVRKVTFQGEQVKGELISGQTFTTTVPANDTTLWPMLKAHNVDTAVTAA”, for which the “soluble fraction (log2)” value was found to be 0.0376. On to “HMTASVTDAMFELIDELPKLGKTSFRQLTADLVDRLQVVVTFLAVLELYKQGHVELDQSERFGDITVVWTG”, for which the “soluble fraction (log2)” value is -1.11. Turning to “HMTATIEEVNELTQSARVNINVPYAAKDEAKAYGAKWDDVERTWYTTGENYAQNKDFFDGFNPTAS”, the “soluble fraction (log2)” value is -0.132. To “HMTATWLTYYRIKAGLTQKRLAELAGLNIRQVQKIENGETLAGNTTAKNLLALADALGIDPHKL” belongs -0.381; to “HMTAYENSIPLNWVIQKGDAKGLPLSANTARLLIDIVGIDLMDLDHELEKISLYLSGESITEEMIKEHIRG”, -1.01; to “HMTDAELDLLTPREQEVLQLIARGYLYKEIARRLGISVKTVEAHASSVLRKLQLSTRHELSHWAAQRH”, -0.192. Turning to “HMTDAYEVLDLNREASDEEIKKRYRELIREHHPDTLIAKGVPQEFVDLANDKMAAINAAYDRIEKDRGL”, the “soluble fraction (log2)” value was -0.0939.
